Measurements published in article PMC9891255.

B1: U12 RNA (ssRNA)
RNA: UUUUUUUUUUUU
B2: U15 RNA (ssRNA)
RNA: UUUUUUUUUUUUUUU

Experiments:
UPF2S [1] = target: T1, UPF2S (Homo sapiens, UniProt Q9HAU5 761-1227); experiment: fluorescence anisotropy
UPF2-U1BD = UPF2-U1BD (Homo sapiens, UniProt Q9HAU5 1105-1227); experiment: fluorescence anisotropy
UPF2S [2] = target: T1, UPF2S; experiment: analytical SEC

T1 sequence (Q9HAU5 761-1227): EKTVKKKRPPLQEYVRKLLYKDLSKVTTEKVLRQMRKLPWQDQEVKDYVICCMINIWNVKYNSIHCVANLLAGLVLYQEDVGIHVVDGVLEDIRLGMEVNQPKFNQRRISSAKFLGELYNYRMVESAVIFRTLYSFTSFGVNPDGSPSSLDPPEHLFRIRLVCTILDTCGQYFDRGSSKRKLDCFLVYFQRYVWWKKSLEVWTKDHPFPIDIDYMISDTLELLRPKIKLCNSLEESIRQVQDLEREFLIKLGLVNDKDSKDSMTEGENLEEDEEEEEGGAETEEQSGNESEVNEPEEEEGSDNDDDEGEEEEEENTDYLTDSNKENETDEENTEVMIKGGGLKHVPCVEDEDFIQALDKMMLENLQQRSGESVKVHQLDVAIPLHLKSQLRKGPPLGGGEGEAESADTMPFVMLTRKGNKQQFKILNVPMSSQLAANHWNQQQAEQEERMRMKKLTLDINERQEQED
Chain of UPF2-U1BD (Q9HAU5 1105-1227): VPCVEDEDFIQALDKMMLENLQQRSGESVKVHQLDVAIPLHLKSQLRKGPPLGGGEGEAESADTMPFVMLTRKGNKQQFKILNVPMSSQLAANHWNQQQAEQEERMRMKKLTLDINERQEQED

Binder	Kd (UPF2S [1]) [nM]	binding result (UPF2-U1BD)	binding result (UPF2S [2])
B1	~600	no binding	
B2			no binding
